Source: the supplement of paper PMC9112550, “Optimization of the antimicrobial peptide Bac7 by deep mutational scanning” (BMC Biology, 2022)

Tested on: Escherichia coli TOP10
Assay: shrunken log2 fold change of peptide-encoding DNA abundance (4.5 h post-induction vs induction); higher = less antimicrobial activity (less host growth inhibition)
Conditions: time post-induction: 4.5 h; library: site-saturation at positions 5, 18, 19, 20
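Further: peptides expressed intracellularly from a pBAD plasmid library in pooled LB shake-flask culture, induced with 0.3% L-arabinose, DNA abundance read by NGS, three biological replicates, DESeq2 with apeglm shrinkage.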

Sequence	shrunken log2 fold change
RRIRQRPPRLPRPRPRPYKTPRP	-0.0141
RRIRQRPPRLPRPRPRPYLFPRP	-0.509
RRIRQRPPRLPRPRPRPYLTPRP	-0.209
RRIRQRPPRLPRPRPRPYMKPRP	-0.521
RRIRQRPPRLPRPRPRPYMQPRP	-0.239
RRIRQRPPRLPRPRPRPYPNPRP	-0.0164
RRIRQRPPRLPRPRPRPYQGPRP	0.00707
RRIRQRPPRLPRPRPRPYQHPRP	-0.515
RRIRQRPPRLPRPRPRPYRAPRP	-0.0946
RRIRQRPPRLPRPRPRPYRFPRP	0.0797
RRIRQRPPRLPRPRPRPYRTPRP	0.0218
RRIRQRPPRLPRPRPRPYSHPRP	-0.0388
RRIRQRPPRLPRPRPRPYTAPRP	-0.219
RRIRQRPPRLPRPRPRPYYFPRP	-0.661
RRIRQRPPRLPRPRPRPYYYPRP	-1.18
RRIRRRPPRLPRPRPRPAACPRP	0.0555
RRIRRRPPRLPRPRPRPAAVPRP	0.462
RRIRRRPPRLPRPRPRPACDPRP	0.539
RRIRRRPPRLPRPRPRPADFPRP	0.115
RRIRRRPPRLPRPRPRPADTPRP	0.423
RRIRRRPPRLPRPRPRPADYPRP	-0.0547
RRIRRRPPRLPRPRPRPAFYPRP	0.654
RRIRRRPPRLPRPRPRPAGHPRP	0.187
RRIRRRPPRLPRPRPRPAGKPRP	0.211
RRIRRRPPRLPRPRPRPAHAPRP	0.407

Sequence	shrunken log2 fold change
RRIRRRPPRLPRPRPRPAHHPRP	0.332
RRIRRRPPRLPRPRPRPAHKPRP	0.386
RRIRRRPPRLPRPRPRPAHNPRP	0.344
RRIRRRPPRLPRPRPRPAHQPRP	0.732
RRIRRRPPRLPRPRPRPAIEPRP	0.109
RRIRRRPPRLPRPRPRPAITPRP	-0.0525
RRIRRRPPRLPRPRPRPALWPRP	1.02
RRIRRRPPRLPRPRPRPAMPPRP	0.396
RRIRRRPPRLPRPRPRPANGPRP	-0.164
RRIRRRPPRLPRPRPRPANSPRP	0.0678
RRIRRRPPRLPRPRPRPAPTPRP	0.793
RRIRRRPPRLPRPRPRPAQLPRP	0.42
RRIRRRPPRLPRPRPRPAQWPRP	0.912
RRIRRRPPRLPRPRPRPAREPRP	0.925
RRIRRRPPRLPRPRPRPARHPRP	0.447
RRIRRRPPRLPRPRPRPARQPRP	-0.0115
RRIRRRPPRLPRPRPRPASIPRP	-0.0206
RRIRRRPPRLPRPRPRPATFPRP	0.0785
RRIRRRPPRLPRPRPRPAVAPRP	0.66
RRIRRRPPRLPRPRPRPAWFPRP	0.22
RRIRRRPPRLPRPRPRPAWGPRP	0.508
RRIRRRPPRLPRPRPRPAYSPRP	0.0936
RRIRRRPPRLPRPRPRPCDAPRP	0.221
RRIRRRPPRLPRPRPRPCECPRP	0.076
RRIRRRPPRLPRPRPRPCEGPRP	-0.0173

Sequence	shrunken log2 fold change
RRIRRRPPRLPRPRPRPCGIPRP	0.506
RRIRRRPPRLPRPRPRPCHLPRP	-0.0646
RRIRRRPPRLPRPRPRPCIAPRP	-0.247
RRIRRRPPRLPRPRPRPCITPRP	-0.846
RRIRRRPPRLPRPRPRPCKLPRP	0.00583
RRIRRRPPRLPRPRPRPCMVPRP	0.106
RRIRRRPPRLPRPRPRPCNRPRP	-0.509
RRIRRRPPRLPRPRPRPCPVPRP	-0.256
RRIRRRPPRLPRPRPRPCRFPRP	-0.0495
RRIRRRPPRLPRPRPRPCRKPRP	-0.444
RRIRRRPPRLPRPRPRPCTGPRP	0.0659
RRIRRRPPRLPRPRPRPCWEPRP	0.109
RRIRRRPPRLPRPRPRPCWFPRP	0.225
RRIRRRPPRLPRPRPRPCWKPRP	0.0297
RRIRRRPPRLPRPRPRPCWLPRP	0.202
RRIRRRPPRLPRPRPRPCWQPRP	0.285
RRIRRRPPRLPRPRPRPDADPRP	1.78
RRIRRRPPRLPRPRPRPDCEPRP	0.363
RRIRRRPPRLPRPRPRPDCIPRP	0.0761
RRIRRRPPRLPRPRPRPDCMPRP	0.32
RRIRRRPPRLPRPRPRPDCRPRP	0.0322
RRIRRRPPRLPRPRPRPDCSPRP	-0.27
RRIRRRPPRLPRPRPRPDEDPRP	0.219
RRIRRRPPRLPRPRPRPDENPRP	0.118
RRIRRRPPRLPRPRPRPDFGPRP	0.0803

Sequence	shrunken log2 fold change
RRIRRRPPRLPRPRPRPDFLPRP	1.31
RRIRRRPPRLPRPRPRPDHCPRP	-0.0402
RRIRRRPPRLPRPRPRPDHWPRP	-0.136
RRIRRRPPRLPRPRPRPDIHPRP	-0.122
RRIRRRPPRLPRPRPRPDISPRP	0.0322
RRIRRRPPRLPRPRPRPDKVPRP	-0.053
RRIRRRPPRLPRPRPRPDLPPRP	0.0159
RRIRRRPPRLPRPRPRPDLQPRP	0.0255
RRIRRRPPRLPRPRPRPDLWPRP	0.676
RRIRRRPPRLPRPRPRPDMLPRP	-0.0772
RRIRRRPPRLPRPRPRPDMQPRP	0.272
RRIRRRPPRLPRPRPRPDNEPRP	0.207
RRIRRRPPRLPRPRPRPDQCPRP	-0.00402
RRIRRRPPRLPRPRPRPDQNPRP	0.327
RRIRRRPPRLPRPRPRPDRSPRP	-0.0169
RRIRRRPPRLPRPRPRPDTDPRP	-0.108
RRIRRRPPRLPRPRPRPDTGPRP	0.0107
RRIRRRPPRLPRPRPRPDTHPRP	-0.254
RRIRRRPPRLPRPRPRPDVPPRP	0.0826
RRIRRRPPRLPRPRPRPDWSPRP	0.182
RRIRRRPPRLPRPRPRPDYIPRP	-0.339
RRIRRRPPRLPRPRPRPEATPRP	2.74
RRIRRRPPRLPRPRPRPECVPRP	0.419
RRIRRRPPRLPRPRPRPEDAPRP	0.582
RRIRRRPPRLPRPRPRPEEGPRP	0.00715

Sequence	shrunken log2 fold change
RRIRRRPPRLPRPRPRPEFWPRP	0.736
RRIRRRPPRLPRPRPRPEGVPRP	0.874
RRIRRRPPRLPRPRPRPEILPRP	0.14
RRIRRRPPRLPRPRPRPEKCPRP	-0.00259
RRIRRRPPRLPRPRPRPEKPPRP	0.376
RRIRRRPPRLPRPRPRPELYPRP	0.247
RRIRRRPPRLPRPRPRPENCPRP	0.0654
RRIRRRPPRLPRPRPRPEQVPRP	-0.0118
RRIRRRPPRLPRPRPRPERNPRP	-0.085
RRIRRRPPRLPRPRPRPERPPRP	0.991
RRIRRRPPRLPRPRPRPERRPRP	0.418
RRIRRRPPRLPRPRPRPESYPRP	0.0503
RRIRRRPPRLPRPRPRPETYPRP	0.0872
RRIRRRPPRLPRPRPRPEVHPRP	0.648
RRIRRRPPRLPRPRPRPEVMPRP	0.212
RRIRRRPPRLPRPRPRPEWAPRP	0.437
RRIRRRPPRLPRPRPRPEYTPRP	0.166
RRIRRRPPRLPRPRPRPFAGPRP	-0.0164
RRIRRRPPRLPRPRPRPFCMPRP	0.084
RRIRRRPPRLPRPRPRPFCQPRP	-0.252
RRIRRRPPRLPRPRPRPFDEPRP	0.0762
RRIRRRPPRLPRPRPRPFDWPRP	0.0636
RRIRRRPPRLPRPRPRPFEEPRP	0.251
RRIRRRPPRLPRPRPRPFEYPRP	-0.0276
RRIRRRPPRLPRPRPRPFFKPRP	-0.177

Sequence	shrunken log2 fold change
RRIRRRPPRLPRPRPRPFFQPRP	-0.111
RRIRRRPPRLPRPRPRPFHLPRP	-0.184
RRIRRRPPRLPRPRPRPFHWPRP	-0.111
RRIRRRPPRLPRPRPRPFIFPRP	0.25
RRIRRRPPRLPRPRPRPFKPPRP	0.174
RRIRRRPPRLPRPRPRPFLFPRP	0.0785
RRIRRRPPRLPRPRPRPFLTPRP	0.228
RRIRRRPPRLPRPRPRPFMQPRP	-0.0994
RRIRRRPPRLPRPRPRPFPRPRP	0.272
RRIRRRPPRLPRPRPRPFRIPRP	0.101
RRIRRRPPRLPRPRPRPFRTPRP	-0.0909
RRIRRRPPRLPRPRPRPFSHPRP	-0.0121
RRIRRRPPRLPRPRPRPFSPPRP	-0.173
RRIRRRPPRLPRPRPRPFTFPRP	-0.247
RRIRRRPPRLPRPRPRPFVGPRP	-0.229
RRIRRRPPRLPRPRPRPFVLPRP	-0.0834
RRIRRRPPRLPRPRPRPFWFPRP	-0.138
RRIRRRPPRLPRPRPRPFYAPRP	-0.0129
RRIRRRPPRLPRPRPRPFYKPRP	-0.173
RRIRRRPPRLPRPRPRPFYPPRP	-0.189
RRIRRRPPRLPRPRPRPFYRPRP	-0.0117
RRIRRRPPRLPRPRPRPGAVPRP	0.431
RRIRRRPPRLPRPRPRPGCKPRP	0.12
RRIRRRPPRLPRPRPRPGCLPRP	0.702
RRIRRRPPRLPRPRPRPGDCPRP	0.336
